This note sets out measurements from paper doi:10.1101/2025.05.02.651858, “Structural basis of unidirectional DNA recombination by the ϕC31 serine integrase” (bioRxiv, 2025).

B1: ϕC31 integrase S12A (cleavage-deficient mutant, full length) (enzyme, Streptomyces phage ϕC31, UniProt Q9T221 1-605, looked up)
chain: MDTYAGAYDRQARERENSSAASPATQRSANEDKAADLQREVERDGGRFRFVGHFSEAPGTSAFGTAERPEFERILNECRAGRLNMIIVYDVSRFSRLKVMDAIPIVSELLALGVTIVSTQEGVFRQGNVMDLIHLIMRLDASHKESSLKSAKILDTKNLQRELGGYVGGKAPYGFELVSETKEITRNGRMVNVVINKLAHSTTPLTGPFEFEPDVIRWWWREIKTHKHLPFKPGSQAAIHPGSITGLCKRMDADAVPTRGETIGKKTASSAWDPATVMRILRDPRIAGFAAEVIYKKKPDGTPTTKIEGYRIQRDPITLRPVELDCGPIIEPAEWYELQAWLDGRGRGKGLSRGQAILSAMDKLYCECGAVMTSKRGEESIKDSYRCRRRKVVDPSAPGQHEGTCNVSMAALDKFVAERIFNKIRHAEGDEETLALLWEAARRFGKLTEAPEKSGERANLVAERADALNALEELYEDRAAGAYDGPVGRKHFRKQQAALTLRQQGAEERLAELEAAEAPKLPLDQWFPEDADADPTGPKSWWGRASVDDKRVFVGLFVDKIVVTKSTTGRGQGTPIEKRASITWAKPPTDDDEDDAQDGTEDVAA
notes: ϕC31 integrase, Streptomyces phage ϕC31, UniProt Q9T221, 605-amino acid polypeptide chain, with S12A; also called full-length S12A integrase; source: E. coli BL21 (DE3) LOBSTR, pET28a, purified (HisTrap Ni-NTA, Superose 6 SEC)

Data set [1] deals with the molecule itself. The experiment in a line: SEC-MALS; SEC-MALLS of equal amounts of purified integrase–attB and integrase–attP complexes mixed; step: two dimer–att complexes to the tetramer–attB–attP synaptic complex; Superose 6 increase 10/300, 20 mM HEPES pH 7.4, 150 mM NaCl, 2 mM MgCl2, 0.1 mM TCEP, 25 °C.
Data set [2] concerns the molecule itself. Put plainly: cryo-EM structure; WT integrase–attL60 dimer complex, without RDF; 20 mM HEPES pH 7.4, 150 mM NaCl, 2 mM MgCl2, 0.1 mM TCEP; 0.4 mg/ml.
Data set [3] deals with the molecule itself. Put plainly: SEC-MALS; SEC-MALLS of integrase–attL complexes, without RDF; step: dimer–attL to attL–attL synaptic complex; Superose 6 increase 10/300, 20 mM HEPES pH 7.4, 150 mM NaCl, 2 mM MgCl2, 0.1 mM TCEP, 25 °C. (In general: Size exclusion chromatography separates by hydrodynamic size, large species first.)
Data set [4] deals with B1. Put plainly: SEC-MALS; SEC-MALLS with SDS-PAGE of the peaks: pre-formed integrase S12A–attB–attP synaptic complex mixed with RDF at 1:3 integrase:RDF molar ratio, 5 min room temperature; Superose 6 increase 10/300, 20 mM HEPES pH 7.4, 150 mM NaCl, 2 mM MgCl2, 0.1 mM TCEP, 25 °C. The settings on record: both partners purified.

Usually stoichiometry N stands for a count of units in the complex or per binding partner. Regarding B1, the “stoichiometry N” value in data set [1] worked out at 4.

B2: ϕC31 integrase (wild type) (enzyme, Streptomyces phage ϕC31, UniProt Q9T221 1-605, looked up)
chain: MDTYAGAYDRQSRERENSSAASPATQRSANEDKAADLQREVERDGGRFRFVGHFSEAPGTSAFGTAERPEFERILNECRAGRLNMIIVYDVSRFSRLKVMDAIPIVSELLALGVTIVSTQEGVFRQGNVMDLIHLIMRLDASHKESSLKSAKILDTKNLQRELGGYVGGKAPYGFELVSETKEITRNGRMVNVVINKLAHSTTPLTGPFEFEPDVIRWWWREIKTHKHLPFKPGSQAAIHPGSITGLCKRMDADAVPTRGETIGKKTASSAWDPATVMRILRDPRIAGFAAEVIYKKKPDGTPTTKIEGYRIQRDPITLRPVELDCGPIIEPAEWYELQAWLDGRGRGKGLSRGQAILSAMDKLYCECGAVMTSKRGEESIKDSYRCRRRKVVDPSAPGQHEGTCNVSMAALDKFVAERIFNKIRHAEGDEETLALLWEAARRFGKLTEAPEKSGERANLVAERADALNALEELYEDRAAGAYDGPVGRKHFRKQQAALTLRQQGAEERLAELEAAEAPKLPLDQWFPEDADADPTGPKSWWGRASVDDKRVFVGLFVDKIVVTKSTTGRGQGTPIEKRASITWAKPPTDDDEDDAQDGTEDVAA
notes: ϕC31 integrase, Streptomyces phage ϕC31, UniProt Q9T221, 605-amino acid polypeptide chain; Used only for the integrase–attL cryo-EM complex (dimer on attL60 DNA); also called WT integrase; source: E. coli BL21 (DE3) LOBSTR, pET28a, purified (HisTrap Ni-NTA, Superose 6 SEC)
Consider B2, for which the binding result in data set [2] is “binds”.

B3: ϕC31 integrase S12A/E449K (enzyme, Streptomyces phage ϕC31, UniProt Q9T221 1-605, looked up)
chain: MDTYAGAYDRQARERENSSAASPATQRSANEDKAADLQREVERDGGRFRFVGHFSEAPGTSAFGTAERPEFERILNECRAGRLNMIIVYDVSRFSRLKVMDAIPIVSELLALGVTIVSTQEGVFRQGNVMDLIHLIMRLDASHKESSLKSAKILDTKNLQRELGGYVGGKAPYGFELVSETKEITRNGRMVNVVINKLAHSTTPLTGPFEFEPDVIRWWWREIKTHKHLPFKPGSQAAIHPGSITGLCKRMDADAVPTRGETIGKKTASSAWDPATVMRILRDPRIAGFAAEVIYKKKPDGTPTTKIEGYRIQRDPITLRPVELDCGPIIEPAEWYELQAWLDGRGRGKGLSRGQAILSAMDKLYCECGAVMTSKRGEESIKDSYRCRRRKVVDPSAPGQHEGTCNVSMAALDKFVAERIFNKIRHAEGDEETLALLWEAARRFGKLTKAPEKSGERANLVAERADALNALEELYEDRAAGAYDGPVGRKHFRKQQAALTLRQQGAEERLAELEAAEAPKLPLDQWFPEDADADPTGPKSWWGRASVDDKRVFVGLFVDKIVVTKSTTGRGQGTPIEKRASITWAKPPTDDDEDDAQDGTEDVAA
notes: ϕC31 integrase, UniProt Q9T221, with S12A and E449K; also called S12A/E449K double mutant; source: E. coli BL21 (DE3) LOBSTR, pET28a, purified (HisTrap Ni-NTA, Superose 6 SEC)
Turning to B3, in data set [3], the binding result is reported as “binds”.

B4: ϕC31 integrase ΔNTD (residues 1–140 deleted) (domain or fragment, Streptomyces phage ϕC31, UniProt Q9T221 141-605, looked up)
chain: ASHKESSLKSAKILDTKNLQRELGGYVGGKAPYGFELVSETKEITRNGRMVNVVINKLAHSTTPLTGPFEFEPDVIRWWWREIKTHKHLPFKPGSQAAIHPGSITGLCKRMDADAVPTRGETIGKKTASSAWDPATVMRILRDPRIAGFAAEVIYKKKPDGTPTTKIEGYRIQRDPITLRPVELDCGPIIEPAEWYELQAWLDGRGRGKGLSRGQAILSAMDKLYCECGAVMTSKRGEESIKDSYRCRRRKVVDPSAPGQHEGTCNVSMAALDKFVAERIFNKIRHAEGDEETLALLWEAARRFGKLTEAPEKSGERANLVAERADALNALEELYEDRAAGAYDGPVGRKHFRKQQAALTLRQQGAEERLAELEAAEAPKLPLDQWFPEDADADPTGPKSWWGRASVDDKRVFVGLFVDKIVVTKSTTGRGQGTPIEKRASITWAKPPTDDDEDDAQDGTEDVAA
notes: ϕC31 integrase, UniProt Q9T221, residues 1–140 deleted from the 605-amino acid chain; source: E. coli BL21 (DE3) LOBSTR, pET28a, purified (HisTrap Ni-NTA, Superose 6 SEC)
For the molecule B4, the binding result in data set [1] is “binds”.

B5: ϕC31 Recombination Directionality Factor (RDF), gp3 (natural protein, Streptomyces phage ϕC31, UniProt Q9T216 1-244, looked up)
chain: MAKRSIWAGDEDNKPKKRETYADDTVGRFHSGYSETNERGKVVPVALDKWRISTGEQSVADAVAQLFGGTPVENEESTSENFIDVFTDRPKVPVIIEADGIHWDMKLWLNGKLKHHCDGFDFVSHADEEMIGQPCGCPKLFDERKAAAKEYDAPNPAITVTFTLADDPELGRFKFQTGSWTLFKVLHEAEDDVERVGKGGAVLANLELELVEYTPKRGPMRNKLVSYYKPTITVLKSYNDAIAD
notes: RDF gp3 protein of Streptomyces phage ϕC31, UniProt Q9T216; residues 23–239 were modelled in the cryo-EM structure; In the excisive synaptic complex structure the RDF stood as the C-terminal part of the fusion protein m9, not as the separate His-tagged protein; source: E. coli BL21 (DE3) LOBSTR, pET28a, purified (HisTrap Ni-NTA, Superdex 200 SEC)
As to B5, the binding result in data set [4] is on record as “binds”.
